From patent publication US20250188457A1, “COMPOSITIONS AND METHODS FOR THE TREATMENT OF GLIOBLASTOMA BY INHIBITION OF THE TFPI2-CD51-STAT6 SIGNALING AXIS” (Northwestern University, priority 2023, published 2025)

Key:
Type in all cases: cell-based, human and mouse
[1] = tested on: SIM-A9 and HMC3 microglia; test: RT-qPCR for microglia marker expression; details: TFPI2 recombinant protein 20 ng/ml
Method: Cells were pelleted, and RNA was isolated with the RNeasy Mini Kit (Qiagen, #74106). RNA was quantified by NanoDrop spectrophotometers and then reverse-transcribed into cDNA by using the All-In-One 5×RT MasterMix (Applied Biological Materials, #G592) in T00 Thermal Cycler (Bio-Rad). RT-qPCR was performed using SYBR Green PCR Master Mix (Bio-Rad, #1725275) in CFX Connect Real-Time PCR Detection System (Bio-Rad). The expression of each gene was normalized to housekeeping genes.

[2] = tested on: SIM-A9, HMC3 microglia and PrhMG; test: Flow cytometry for CD206 and ARG1 (microglia immunosuppressive polarization); details: TFPI2 recombinant protein 20 ng/ml
Method: For membrane protein staining, the single-cell suspensions were washed with PBS and then incubated with fixable viability dye (Invitrogen, #5211229035) on ice for 10 min. Following washing with PBS, cells were incubated with the anti-CD16/CD32 cocktail (BioLegend, #103132) in 2% BSA PBS to block Fc receptors for 30 min on ice. Different antibody combinations, including Percp/Cy5.5 anti-mouse CD45 (BioLegend, #103132), AF488 anti-mouse CD3 (BioLegend, #100210), BV421 anti-mouse CX3CR1 (BD Bioscience, #567531), BUV395 anti-mouse CD4 (BD Bioscience, #740208), BV711 anti-mouse CD8 (BioLegend, #100747), PE/Cy7 anti-mouse/human CD11b (BioLegend, #101216), PE anti-mouse CD68 (BD Bioscience, #566386), PE anti-mouse PD1 (BioLegend, #135205), AF647 anti-mouse CD206 (BD Bioscience, #565250), AF647 anti-human CD206 (BioLegend, #321116), PE anti-human CD69 (BioLegend, #310906), PE/Cy7 anti-mouse CD69 (BioLegend, #104512), and BV650 anti-human HLA-DR (BioLegend, #307650) were added to cell suspensions for 30 min on ice. […] Samples were read in BD FACSymphony flow cytometer and analyzed in FlowJo v10.8.1.
Intracellular protein staining was performed separately or followed by cell surface marker staining. […] Then cell suspensions were rewashed in permeabilization buffer and read in BD FACSymphony flow cytometer.

[3] = tested on: PrhMG, HMC3 and SIM-A9 microglia; test: Transwell migration assay of microglia; details: TFPI2 recombinant protein 20 ng/ml
Method: For transwell migration assay, HMC3 microglia, SIM-A9 microglia, and PrhMG were suspended in serum-free culture medium and seeded into transwell 24-well plates with permeable polycarbonate membrane inserts (5.0 μm, Corning, #07-200-149). GSC conditioned media (CM), or basal cell culture medium with TFPI2 recombinant protein (BioVision, #7481-10) were added to the remaining receiver wells. The STAT6 inhibitor AS151749 (Selleck Chemicals, #S8685) was used to study the role of STAT6 in microglia migration. The CD51 inhibitor MK-0429 (MedChemExpress, #HY-15102) was used to study the role of CD51 in TFPI2-induced microglia migration. After 10 hrs, the migrated microglia were fixed and stained with crystal violet (Sigma, #C-3886). The number of transferred cells was counted using ImageJ (NIH, Bethesda, […]).

STAT6 = test: Immunoblot and flow cytometry for P-STAT6 in microglia; details: TFPI2 recombinant protein, indicated concentrations and time points
Method: The protein expression in cells was determined by western blotting analysis (Ref. 61; incorporated by reference in its entirety). Cells were homogenized in RIPA lysis buffer containing phosphatase/protease cocktail inhibitors (Cell Signaling Technology, #5870). The protein concentration was determined by BCA Protein Assay Kit (Thermo Fisher Scientific, #P123225). Protein solution was mixed with the Leammli sample buffer and heated at 95° C. before loading to SurePAGE gels (GenScript, #M00653). The gels were run at a constant voltage of 80 V and then transferred to 0.2 μm nitrocellulose membrane (Bio-Rad, #1620112) using the Trans-Blot Turbo system (Bio-Rad) with a preprogrammed standard protocol for 30 min. Nitrocellulose membrane was incubated with 5% dry milk to block any unspecific staining. […]

## NC(=O)c1cnc(NCCc2ccc(O)c(Cl)c2)nc1NCc1ccccc1 [AS1517499]
[1]; AS1517499 25 nM
  TFPI2-induced suppression of immunostimulatory microglia markers (MIF, IL23, CXCL11, IL6, TNFA, LFNG, HLA-DR): countered
[2]; mouse and human microglia, AS1517499 25 nM
  TFPI2-induced increase of immunosuppressive microglia (CD206 and ARG1 expression): negated
[3]; AS1517499 at indicated concentrations
  TFPI2-induced transwell migration of human and mouse microglia: suppressed

B1: TFPI2 recombinant protein (tissue factor pathway inhibitor 2; BioVision, #7481-10) (ligand, UniProt P48307 23-235, looked up)
chain: DAAQEPTGNNAEICLLPLDYGPCRALLLRYYYDRYTQSCRQFLYGGCEGNANNFYTWEACDDACWRIEKVPKVCRLQVSVDDQCEGSTEKYFFNLSSMTCEKFFSGGCHRNRIENRFPDEATCMGFCAPKKIPSFCYSPKDEGLCSANVTRYYFNPRYRTCDAFTYTGCGGNDNNFVSREDCKRACAKALKKKKKMPKLRFASRIRKIRKKQF
notes: Bought recombinant protein added to microglia at 20 ng/ml; also called recombinant TFPI2; secreted TFPI2
[1]
  expression of immunostimulatory microglia markers (RT-qPCR): suppressed
[2]
  immunosuppressive microglia (CD206 and ARG1 expression): increased
[3]
  migration of microglia (SIM-A9, HMC3, PrhMG): dramatically increased
STAT6
  phosphorylation of STAT6 in human and mouse microglia: increased
